From patent US5616475

Target: T1, TRC-1 (p21 SNF-1/JunB heteromultimer), SLB-I nuclear extract (Homo sapiens) (UniProt Q9NR55+P17275)
T1 sequence 1: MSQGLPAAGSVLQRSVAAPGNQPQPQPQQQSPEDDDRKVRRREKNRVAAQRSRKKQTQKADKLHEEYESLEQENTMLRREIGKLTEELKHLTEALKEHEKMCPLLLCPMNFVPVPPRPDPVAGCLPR
T1 sequence 2: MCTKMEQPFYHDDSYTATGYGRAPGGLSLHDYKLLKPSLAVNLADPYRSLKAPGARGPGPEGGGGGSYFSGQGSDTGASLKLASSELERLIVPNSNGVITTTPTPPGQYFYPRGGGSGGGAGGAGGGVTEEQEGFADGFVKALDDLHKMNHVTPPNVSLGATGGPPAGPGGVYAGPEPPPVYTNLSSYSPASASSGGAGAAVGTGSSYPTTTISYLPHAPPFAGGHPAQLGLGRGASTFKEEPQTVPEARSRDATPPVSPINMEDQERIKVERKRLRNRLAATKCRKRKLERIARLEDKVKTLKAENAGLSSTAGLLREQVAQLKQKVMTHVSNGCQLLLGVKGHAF
Assay: competition
Settings: EMSA, site2 probe

Substance: HTLV-1 LTR 21-bp repeat site1 (s1)
- binding signal (fold excess for 55% competition): 100

Substance: HTLV-1 LTR 21-bp repeat site2 (s2)
- binding signal (% competition at 12.5-fold excess) (on ice): 55

Substance: HTLV-1 LTR 21-bp repeat site3 (s3)
- binding signal (fold excess for 55% competition) (nearly 50-fold): 50
